Numbering of substitutions follows the chain as printed. In names and notes the source's numbering stands.
B1: human cytoglobin, wildtype (natural protein, UniProt Q8WWM9 1-190, looked up)
chain: MEKVPGEMEIERRERSEELSEAERKAVQAMWARLYANCEDVGVAILVRFFVNFPSAKQYFSQFKHMEDPLEMERSPQLRKHACRVMGALNTVVENLHDPDKVSSVLALVGKAHALKHKVEPVYFKILSGVILEVVAEEFASDFPPETQRAWAKLRGLIYSHVTAAYKEVGWVQQVPNATTPPATLPSSGP
notes: cytoglobin, human; gene bought from OriGene and transferred into pET28a; monomer runs at 21 kDa; Haem protein; The preparation holds monomer, dimer and a minor polymerised fraction; also called Cygb; WT Cygb
B2: human cytoglobin H81V (natural protein, UniProt Q8WWM9 1-190, looked up)
chain: B1 chain with H81V
notes: cytoglobin, human, distal histidine mutant; Haem protein; also called H81V Cygb; histidine 81(E7) to valine mutation
B3: human cytoglobin H81Y (natural protein, UniProt Q8WWM9 1-190, looked up)
chain: B1 chain with H81Y
notes: cytoglobin, human, distal histidine mutant; Haem protein; also called H81Y Cygb; histidine 81 to tyrosine mutation

Biological target: the molecule itself
Experiment: SEC; G75 Superdex column equilibrated with 0.1 M sodium phosphate buffer pH 7.4; absorbance at 280 nm; monomer to dimer of the recombinant protein as purified

Protein	stoichiometry N	binding result
B1	2	
B2		binds
B3		binds

Source: article PMC4431388, “Effect of the distal histidine on the peroxidatic activity of monomeric cytoglobin” (F1000Research, 2015)
